In patent publication US20230212319A1, “NOVEL ANTIGEN BINDING DOMAINS AND SYNTHETIC ANTIGEN RECEPTORS INCORPORATING THE SAME” (University of Southern California, priority 2020, published 2023):

B1: 22117 (protein)
chain: MALPVTALLLPLALLLHAARPQLQLQESGPGLVKPSETLSLTCTVSGDSISSGDYYWGWIRQPPGKGLEWIGHIYYSGVTYYNPSLKSRVTISVDTSRNQFSLKLSSVTAADTAVYYCTREDSSNWRSRGQGTLVTVSSLEIQNPDPAVYQLRDSKSSDKSVCLFTDFDSQTNVSQSKDSDVYITDKCVLDMRSMDFKSNSAVAWSNKSDFACANAFNNSIIPEDTFFPSSDVPCDVKLVEKSFETDTNLNFQNLSVIGFRILLLKVAGFNLLMTLRLWSSRAKRSGSGVKQTLNFDLLKLAGDVESNPGPTSTMALPVTALLLPLALLLHAARPQLQLQESGPGLVKPSETLSLTCTVSGDSISSGDYYWGWIRQPPGKGLEWIGHIYYSGVTYYNPSLKSRVTISVDTSRNQFSLKLSSVTAADTAVYYCTREDSSNWRSRGQGTLVTVSSLESGGGGSFEQVQLQQPGAELVKPGASVKMSCKASGYAFSSYWINWMKQKPGQGLEWIGQIYPGDGDTNYNGKFKGRATLTADTSSSTAYMQLSSLTSEDSAVYFCARSITTVVGCAMDYWGQGTSVTVSSTREDLKNVFPPEVAVFEPSKAEIAHTQKATLVCLATGFYPDHVELSWWVNGKEVHSGVCTDPQPLKEQPALNDSRYCLSSRLRVSATFWQNPRNHFRCQVQFYGLSENDEWTQDRAKPVTQIVSAEAWGRADCGITSASYHQGVLSATILYEILLGKATLYAVLVSALVLMAMVKRKDSRGRAKRSGSGATNFSLLKQAGDVEENPGPSRGHMTEYKPTVRLATRDDVPRAVRTLAAAFADYPATRHTVDPDRHIERVTELQELFLTRVGLDIGKVWVADDGAAVAVWTTPESVEAGAVFAEIGPRMAELSGSRLAAQQQMEGLLAPHRPKEPAWFLATVGVSPDHQGKGLGSAVVLPGVEAAERAGVPAFLETSAPRNLPFYERLGFTVTADVEVPEGPRTWCMTRKPGA
B2: 22103 (protein)
chain: MALPVTALLLPLALLLHAARPDIQMTQSPSSLSASVGDRVTITCKASDHINNWLAWYQQKPGQAPKLLIYGATTLETGVPSRFSGSGSGTDYTLTISSLQPEDFATYYCQQSWNTPWTFGQGTKLEIKRLEGQPKANPTVTLFPPSSEELQANKATLVCLISDFYPGAVTVAWKADGSPVKAGVETTKPSKQSNNKYAASSYLSLTPEQWKSHRSYSCQVTHEGSTVEKTVAPTECSPIKTDVITMDPKDNCSKDANDTLLLQLTNTSAYYMYLLLLLKSVVYFAIITCCLLRRTAFCCNGEKSRAKRSGSGATNFSLLKQAGDVEENPGPTSMDWIWRILFLVGAATGAHSFEQVQLQQPGAELVKPGASVKMSCKASGYAFSSYWINWMKQKPGQGLEWIGQIYPGDGDTNYNGKFKGRATLTADTSSSTAYMQLSSLTSEDSAVYFCARSITTVVGCAMDYWGQGTSVTVSSTRASTKGPSVFPLAPSSKSTSGGTAALGCLVKDYFPEPVTVSWNSGALTSGVHTFPAVLQSSGLYSLSSVVTVPSSSLGTQTYICNVNHKPSNTKVDKRVEPKSCEVKTDSTDHVKPKETENTKQPSKSCHKPKAIVHTEKVNMMSLTVLGLRMLFAKTVAVNFLLTAKLFFLRAKRSGSGVKQTLNFDLLKLAGDVESNPGPSRGHMTEYKPTVRLATRDDVPRAVRTLAAAFADYPATRHTVDPDRHIERVTELQELFLTRVGLDIGKVWVADDGAAVAVWTTPESVEAGAVFAEIGPRMAELSGSRLAAQQQMEGLLAPHRPKEPAWFLATVGVSPDHQGKGLGSAVVLPGVEAAERAGVPAFLETSAPRNLPFYERLGFTVTADVEVPEGPRTWCMTRKPGA
B3: 22183 (protein)
chain: MALPVTALLLPLALLLHAARPACQVQLQESGAGLLKPSETLSLTCAVYGGSFSAYNWNWIRQPPGKGLEWIGEINHRGDTAYNPSLKSRVTISVDTSKNQFSLNLTSVTAADTAVYYCAARGYSYGWPPGYISDAFDIWGQGTQVTVSSGTGGGGSGGGGSGGGGSEFDIQMTQSPSSLSASVGDRVTITCKASDHINNWLAWYQQKPGQAPKLLIYGATTLETGVPSRFSGSGSGTDYTLTISSLQPEDFATYYCQQSWNTPWTFGQGTKLEIKRLEDLKNVFPPEVAVFEPSEAEISHTQKATLVCLATGFYPDHVELSWWVNGKEVHSGVCTDPQPLKEQPALNDSRYCLSSRLRVSATFWQNPRNHFRCQVQFYGLSENDEWTQDRAKPVTQIVSAEAWGRADCGFTSESYQQGVLSATILYEILLGKATLYAVLVSALVLMAMVKRKDSRGRAKRSGSGATNFSLLKQAGDVEENPGPTSMDWIWRILFLVGAATGAHSFEQVQLQQPGAELVKPGASVKMSCKASGYAFSSYWINWMKQKPGQGLEWIGQIYPGDGDTNYNGKFKGRATLTADTSSSTAYMQLSSLTSEDSAVYFCARSITTVVGCAMDYWGQGTSVTVSSTRIQNPDPAVYQLRDSKSSDKSVCLFTDFDSQTNVSQSKDSDVYITDKCVLDMRSMDFKSNSAVAWSNKSDFACANAFNNSIIPEDTFFPSPESSCDVKLVEKSFETDTNLNFQNLSVIGFRILLLKVAGFNLLMTLRLWSSRAKRSGSGVKQTLNFDLLKLAGDVESNPGPSRGHMTEYKPTVRLATRDDVPRAVRTLAAAFADYPATRHTVDPDRHIERVTELQELFLTRVGLDIGKVWVADDGAAVAVWTTPESVEAGAVFAEIGPRMAELSGSRLAAQQQMEGLLAPHRPKEPAWFLATVGVSPDHQGKGLGSAVVLPGVEAAERAGVPAFLETSAPRNLPFYERLGFTVTADVEVPEGPRTWCMTRKPGA
B4: 22194 (protein)
chain: MALPVTALLLPLALLLHAARPQLQLQESGPGLVKPSETLSLTCTVSGDSISSGDYYWGWIRQPPGKGLEWIGHIYYSGVTYYNPSLKSRVTISVDTSRNQFSLKLSSVTAADTAVYYCTREDSSNWRSRGQGTLVTVSSLEGQPKANPTVTLFPPSSEELQANKATLVCLISDFYPGAVTVAWKADGSPVKAGVETTKPSKQSNNKYAASSYLSLTPEQWKSHRSYSCQVTHEGSTVEKTVAPTECSPIKTDVITMDPKDNCSKDANDTLLLQLTNTSAYYMYLLLLLKSVVYFAIITCCLLRRTAFCCNGEKSRAKRSGSGATNFSLLKQAGDVEENPGPTSMDWIWRILFLVGAATGAHSFEYAKEMRNAYWEIALLPNLTNQQKRAPIRKLYDDPSQSSELLSEAKKLNDSQTRASTKGPSVFPLAPSSKSTSGGTAALGCLVKDYFPEPVTVSWNSGALTSGVHTFPAVLQSSGLYSLSSVVTVPSSSLGTQTYICNVNHKPSNTKVDKRVEPKSCEVKTDSTDHVKPKETENTKQPSKSCHKPKAIVHTEKVNMMSLTVLGLRMLFAKTVAVNFLLTAKLFFLRAKRSGSGVKQTLNFDLLKLAGDVESNPGPSRGHMTEYKPTVRLATRDDVPRAVRTLAAAFADYPATRHTVDPDRHIERVTELQELFLTRVGLDIGKVWVADDGAAVAVWTTPESVEAGAVFAEIGPRMAELSGSRLAAQQQMEGLLAPHRPKEPAWFLATVGVSPDHQGKGLGSAVVLPGVEAAERAGVPAFLETSAPRNLPFYERLGFTVTADVEVPEGPRTWCMTRKPGA
B5: 22155 (protein)
chain: MALPVTALLLPLALLLHAARPACEVQLLESGGGLIQPGGSLRLSCAASGFTFSSHAMTWVRQAPGKGLEWVSAISGSGDYTHYADSVKGRFTISRDNSKNTVYLQMNSLRAEDSAVYYCAKDEDGGSLLGHRGQGTLVTVSSGTGGGGSGGGGSGGGGSEFSYVLTQPPSVSVAPGQTARITCGGNNIGGKSVHWYQQPPGQAPVVVVYDDSDRPSGIPERFSGSNSGNTATLTISRVEAGDEAVYYCQVWDSSSDHVVFGGGTKLTVLLEADVSPKPTIFLPSIAETKLQKAGTYLCLLEKFFPDVIKIHWQEKKSNTILGSQEGNTMKTNDTYMKFSWLTVPEKSLDKEHRCIVRHENNKNGVDQEIIFPPIKTDVITMDPKDNCSKDANDTLLLQLTNTSAYYMYLLLLLKSVVYFAIITCCLLRRTAFCCNGEKSRAKRSGSGATNFSLLKQAGDVEENPGPTSMDWIWRILFLVGAATGAHSGPQVQLQESGGGLAQAGGSLRLSCAASGRTFSMGWFRQAPGKEREFVAAITYSGGSPYYASSVRGRFTISRDNAKNTVYLQMNSLKPEDTAVYYCAANPTYGSDWNAENWGQGTQVTVSSGSGGGGSGGGGSGGGGSFEQLQLQESGPGLVKPSETLSLTCTVSGGSISSSSYFWGWIRQPPGKGLEWIGSIYYSGITYYNPSLKSRVTISVDTSKNQFSLKLSSVTAADTAVYYCARHDGAVAGLFDYWGQGTLVTVSSATRPHTKPSVFVMKNGTNVACLVKEFYPKDIRINLVSSKKITEFDPAIVISPSGKYNAVKLGKYEDSNSVTCSVQHDNKTVHSTDFEVKTDSTDHVKPKETENTKQPSKSCHKPKAIVHTEKVNMMSLTVLGLRMLFAKTVAVNFLLTAKLFFLRAKRSGSGVKQTLNFDLLKLAGDVESNPGPSRGHMTEYKPTVRLATRDDVPRAVRTLAAAFADYPATRHTVDPDRHIERVTELQELFLTRVGLDIGKVWVADDGAAVAVWTTPESVEAGAVFAEIGPRMAELSGSRLAAQQQMEGLLAPHRPKEPAWFLATVGVSPDHQGKGLGSAVVLPGVEAAERAGVPAFLETSAPRNLPFYERLGFTVTADVEVPEGPRTWCMTRKPGA
B6: 22182 (protein)
chain: MALPVTALLLPLALLLHAARPACEVQLVESGGGVVQPGRSLRLSCAASGFSFSGYGMHWVRQAPGKGLEWVAYISYDGSNKYYADSVKGRFTISRDNSKNTLYLQMNSLRAEDTAVYYCAKDPAWGLRLGESSSYDFDYWGQGTMVTVSSGTGGGGSGGGGSGGGGSEFDIQMTQSPSSLSASVGDRVTITCKASDHINNWLAWYQQKPGQAPKLLIYGATTLETGVPSRFSGSGSGTDYTLTISSLQPEDFATYYCQQSWNTPWTFGQGTKLEIKRLEDLKNVFPPEVAVFEPSEAEISHTQKATLVCLATGFYPDHVELSWWVNGKEVHSGVCTDPQPLKEQPALNDSRYCLSSRLRVSATFWQNPRNHFRCQVQFYGLSENDEWTQDRAKPVTQIVSAEAWGRADCGFTSESYQQGVLSATILYEILLGKATLYAVLVSALVLMAMVKRKDSRGRAKRSGSGATNFSLLKQAGDVEENPGPTSMDWIWRILFLVGAATGAHSFEQVQLQQPGAELVKPGASVKMSCKASGYAFSSYWINWMKQKPGQGLEWIGQIYPGDGDTNYNGKFKGRATLTADTSSSTAYMQLSSLTSEDSAVYFCARSITTVVGCAMDYWGQGTSVTVSSTRIQNPDPAVYQLRDSKSSDKSVCLFTDFDSQTNVSQSKDSDVYITDKCVLDMRSMDFKSNSAVAWSNKSDFACANAFNNSIIPEDTFFPSPESSCDVKLVEKSFETDTNLNFQNLSVIGFRILLLKVAGFNLLMTLRLWSSRAKRSGSGVKQTLNFDLLKLAGDVESNPGPSRGHMTEYKPTVRLATRDDVPRAVRTLAAAFADYPATRHTVDPDRHIERVTELQELFLTRVGLDIGKVWVADDGAAVAVWTTPESVEAGAVFAEIGPRMAELSGSRLAAQQQMEGLLAPHRPKEPAWFLATVGVSPDHQGKGLGSAVVLPGVEAAERAGVPAFLETSAPRNLPFYERLGFTVTADVEVPEGPRTWCMTRKPGA

tested on: RAJI cells; assay: JNG assay, co-culture with RAJI cells; format: cell-based; details: JNG cells expressing construct, co-culture with Raji
How it was run: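 Read-out is NFAT-driven GFP measured by flow cytometry after ~4–18 h co-culture of SAR-expressing JNG cells with target cells (E:T about 1:2). SARs were introduced by lentiviral spinfection and selected with puromycin or blasticidin when possible; scores (+/- to 5+ ≈ 5–50% GFP+) are relative to parental JNG cells.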

Molecule | NFAT-GFP ASSAY: Raji
B1 | 3+ (refer to approximately 5%, 10%, 20%, 30%, 40% and 50% GFP positive cells)
B2 | 4+ (refer to approximately 5%, 10%, 20%, 30%, 40% and 50% GFP positive cells)
B3 | 5+ (refer to approximately 5%, 10%, 20%, 30%, 40% and 50% GFP positive cells)
B4 | 4+ (refer to approximately 5%, 10%, 20%, 30%, 40% and 50% GFP positive cells)
B5 | 2+ (refer to approximately 5%, 10%, 20%, 30%, 40% and 50% GFP positive cells)
B6 | 5+ (refer to approximately 5%, 10%, 20%, 30%, 40% and 50% GFP positive cells)
